From US20240391950A1, “PEPTIDE CROSSLINKING AGENT AND CROSSLINKED PEPTIDE WHICH IS CROSSLINKED USING SAID CROSSLINKING AGENT” (Kagoshima University, priority 2020, published 2024)
Starred links: 1 amine or outer side, 2 acyl side, 3 side chain; linkers in the order of their positions; H or OH if unused. Positions of bridges follow the written chain, without caps; N, C: chain ends. Residues, ends and D or L forms follow the SMILES beside them. No end group written: not given here. CH2COCH2 = O=C(C[*:1])C[*:2]

Key:
human serum-derived IgG = assay: Dynamic binding capacity (DBC) measurement and alkali resistance evaluation of peptide-immobilized column; details: initial value; 1 mg peptide on 1-mL column, 1 mL/min
Procedure: Five mL of 1 mM hydrochloric acid was sent to an NHS-activated prepacked column having a volume of 1 mL, and an isopropanol solution in the column was removed. Next, a 10.0 mg/mL peptide solution (dissolved in 100 μL of DMSO) was diluted with a coupling solution (20 mM carbonate buffer, 50 mM sodium chloride, pH 8.3) by 10-fold, 1 mL of the dilution liquid was sent, and immobilization was performed at room temperature for 4 hours. Thereafter, unreacted NHS was blocked by 5 mL of 1 M Tris (pH 8.0) at room temperature for 1 hour. Thereafter, washing with 5 mL of an aqueous 0.1 N NaOH solution was made. Finally, 10 mL of a PBS solution (20 mM phosphate buffer, 150 mM sodium chloride, pH 7.4) was sent, and used in chromatography evaluation.
A column where the amount of immobilization of a peptide was 1 mg was produced by the same method as described above. The column produced was equilibrated with PBS, and 1 mg/mL human serum-derived IgG (manufactured by Sigma-Aldrich Co. LLC) dissolved in PBS was sent at a flow rate of 1 mL/min (retention time 1 min). DBC was indicated as one determined from the amount of a protein added at the time of point where 10% of the absorbance at 280 nm of the sample added was leaked.
Next, 5 mL of an aqueous 0.1 N sodium hydroxide solution was sent to the 1-mL column where 1 mg of the peptide was immobilized. Thereafter, washing with PBS was performed. This cycle was repeated 30 times for the 1,1-dichloroacetone-crosslinked cyclic peptide, and was repeated 10 times for the 1,1-dichloropinacolin-crosslinked cyclic peptide. DBC measurement was performed at a flow rate of 1 mL/min at the 1st to 5th and 10th times of the cycles, and further performed at the 20th and 30th times of the cycles with respect to the 1,1-dichloroacetone-crosslinked cyclic peptide, and thus alkali resistance was evaluated. The variation in DBC was determined based on the measurement results under the assumption that DBC immediately after column production was 100% according to Table 2.
Five mL of a 0.1 M sodium hydroxide solution was sent to the produced 1-mL column where the amount of immobilization of a peptide was 1 mg, and thereafter washing with 5 mL of PBS was performed. These operations were defined as one cycle and treatment of washing with aqueous NaOH solution/washing with PBS was performed 1 to 30 times, and thereafter DBC measurement was performed at a flow rate of 1 mL/min at the intended number of times (1, 2, 3, 4, 5, 10, 20, 30 times).

human IgG1 = human IgG1 (Homo sapiens, UniProt P01857); assay: SPR (BIAcore T200) measurement of binding affinity of crosslinked cyclic peptide to immobilized IgG
Procedure: The affinity analysis was performed by the following method. First, a CM5 sensor chip was installed on BIAcoreT200 (GE healthcare), and 0.4 M 1-ethyl-3-(3-dimethylaminopropyl)carbodiimide (EDC) and a 0.1 M sulfo-N-hydroxysuccinimide (sulfo-NHS) solution mixed in equivalent amounts were injected to the sensor chip at a flow rate of […], to thereby activate the sensor chip. Thereafter, IgG was immobilized onto the sensor chip under a condition of a pH of 5.5 (10 mM Na acetate). An HBS-EP buffer (10 mM HEPES, 150 mM NaCl, 0.005% Tween 20, 3 mM EDTA, pH 7.4) was used in measurement, and 15.625, 31.2, 62.5, 125, 250, and 500 nM of peptides were each injected at a flow rate of […] for 180 seconds, to thereby monitor binding reaction. When dissociation reaction was measured, only the buffer was injected for 600 seconds. The interaction parameter was analyzed with BIAevaluation T100 software.
IgG-binding peptide derivatives compared and evaluated are illustrated in FIG. 1.

IgG = details: Patent Literature 2; read-out: Kd (affinity with IgG); cited from earlier work
[1] = biological target: human serum-derived IgG (manufactured by Sigma-Aldrich Co. LLC); assay: 1 mL column with 1 mg peptide immobilised, human serum IgG; 1 wash with 0.1 N NaOH
[2] = biological target: human serum-derived IgG (manufactured by Sigma-Aldrich Co. LLC); assay: 1 mL column with 1 mg peptide immobilised, human serum IgG 1 mg/mL at 1 mL/min; 5 washes with 0.1 N NaOH
[3] = biological target: human serum-derived IgG (manufactured by Sigma-Aldrich Co. LLC); assay: 1 mL column with 1 mg peptide immobilised, human serum IgG, 10% breakthrough; 10 washes with 0.1 N NaOH
[4] = biological target: human serum-derived IgG (manufactured by Sigma-Aldrich Co. LLC); assay: peptide-immobilised column, human serum IgG, 10% breakthrough
[5] = biological target: human serum-derived IgG (manufactured by Sigma-Aldrich Co. LLC); assay: 1 mL column with 1 mg peptide immobilised, human serum IgG 1 mg/mL at 1 mL/min; 1 wash with 0.1 N NaOH
[6] = biological target: human serum-derived IgG (manufactured by Sigma-Aldrich Co. LLC); assay: 1 mL column with 1 mg peptide immobilised, human serum IgG, 10% breakthrough; 2 washes with 0.1 N NaOH
[7] = biological target: human serum-derived IgG (manufactured by Sigma-Aldrich Co. LLC); assay: 1 mL column with 1 mg peptide immobilised, human serum IgG, 10% breakthrough; 1 wash with 0.1 N NaOH
[8] = biological target: human serum-derived IgG (manufactured by Sigma-Aldrich Co. LLC); assay: 1 mL column with 1 mg peptide immobilised, human serum IgG 1 mg/mL at 1 mL/min; 10 washes with 0.1 N NaOH
[9] = biological target: human serum-derived IgG (manufactured by Sigma-Aldrich Co. LLC); assay: 1 mL column with 1 mg peptide immobilised, human serum IgG, 10% breakthrough; 5 washes with 0.1 N NaOH
human IgG1 (human) [10] = assay: SPR, BIAcore T200, IgG immobilised on CM5 chip
human IgG1 (human) [11] = assay: SPR, BIAcore T200, IgG immobilised on CM5 chip, peptide as analyte
[12] = biological target: human serum-derived IgG (manufactured by Sigma-Aldrich Co. LLC); assay: 1 mL column with 1 mg peptide immobilised, human serum IgG; 5 washes with 0.1 N NaOH
[13] = biological target: human serum-derived IgG (manufactured by Sigma-Aldrich Co. LLC); assay: 1 mL column with 1 mg peptide immobilised, human serum IgG; 2 washes with 0.1 N NaOH
[14] = biological target: human serum-derived IgG (manufactured by Sigma-Aldrich Co. LLC); assay: 1 mL column with 1 mg peptide immobilised, human serum IgG; 10 washes with 0.1 N NaOH
[15] = biological target: human serum-derived IgG (manufactured by Sigma-Aldrich Co. LLC); assay: 1 mL column with 1 mg peptide immobilised, human serum IgG 1 mg/mL at 1 mL/min; 2 washes with 0.1 N NaOH
human IgG1 (human) [16] = assay: SPR, BIAcore T200, IgG immobilised on CM5 chip; the text value differs from Table 1 (8.0)
[17] = biological target: human serum-derived IgG (manufactured by Sigma-Aldrich Co. LLC); assay: 1 mL column with 1 mg peptide immobilised, human serum IgG; 3 washes with 0.1 N NaOH
[18] = biological target: human serum-derived IgG (manufactured by Sigma-Aldrich Co. LLC); assay: 1 mL column with 1 mg peptide immobilised, human serum IgG, 10% breakthrough; 4 washes with 0.1 N NaOH
[19] = biological target: human serum-derived IgG (manufactured by Sigma-Aldrich Co. LLC); assay: 1 mL column with 1 mg peptide immobilised, human serum IgG, 10% breakthrough; 20 washes with 0.1 N NaOH
[20] = biological target: human serum-derived IgG (manufactured by Sigma-Aldrich Co. LLC); assay: 1 mL column with 1 mg peptide immobilised, human serum IgG 1 mg/mL at 1 mL/min; 20 washes with 0.1 N NaOH
[21] = biological target: human serum-derived IgG (manufactured by Sigma-Aldrich Co. LLC); assay: 1 mL column with 1 mg peptide immobilised, human serum IgG 1 mg/mL at 1 mL/min; 30 washes with 0.1 N NaOH
[22] = biological target: human serum-derived IgG (manufactured by Sigma-Aldrich Co. LLC); assay: 1 mL column with 1 mg peptide immobilised, human serum IgG 1 mg/mL at 1 mL/min; 4 washes with 0.1 N NaOH
[23] = biological target: human serum-derived IgG (manufactured by Sigma-Aldrich Co. LLC); assay: 1 mL column with 1 mg peptide immobilised, human serum IgG 1 mg/mL at 1 mL/min; 3 washes with 0.1 N NaOH
[24] = biological target: human serum-derived IgG (manufactured by Sigma-Aldrich Co. LLC); assay: 1 mL column with 1 mg peptide immobilised, human serum IgG, 10% breakthrough; 30 washes with 0.1 N NaOH
[25] = biological target: human serum-derived IgG (manufactured by Sigma-Aldrich Co. LLC); assay: 1 mL column with 1 mg peptide immobilised, human serum IgG; 4 washes with 0.1 N NaOH
[26] = biological target: human serum-derived IgG (manufactured by Sigma-Aldrich Co. LLC); assay: 1 mL column with 1 mg peptide immobilised, human serum IgG, 10% breakthrough; 3 washes with 0.1 N NaOH
[27] = biological target: human serum-derived IgG (manufactured by Sigma-Aldrich Co. LLC); assay: 1 mL column with 1 mg peptide immobilised, human serum IgG; 20 washes with 0.1 N NaOH
[28] = biological target: human serum-derived IgG (manufactured by Sigma-Aldrich Co. LLC); assay: 1 mL column with 1 mg peptide immobilised, human serum IgG; 30 washes with 0.1 N NaOH

human IgG1, sequence (P01857 1-328 limits assumed): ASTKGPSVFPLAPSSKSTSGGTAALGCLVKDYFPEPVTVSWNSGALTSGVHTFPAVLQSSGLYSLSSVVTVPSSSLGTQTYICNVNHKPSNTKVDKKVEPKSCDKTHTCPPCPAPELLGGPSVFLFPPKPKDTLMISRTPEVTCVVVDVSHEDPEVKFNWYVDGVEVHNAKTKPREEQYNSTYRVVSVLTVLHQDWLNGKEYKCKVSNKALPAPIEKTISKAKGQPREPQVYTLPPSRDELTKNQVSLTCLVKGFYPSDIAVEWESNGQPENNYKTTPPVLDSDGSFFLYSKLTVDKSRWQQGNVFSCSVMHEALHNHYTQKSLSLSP

| Molecule | Variation (%) in maximum binding capacity [1] | Maximum binding capacity [2] | Dynamic binding capacity [3] | Variation (%) in dynamic binding capacity [3] | DBC relative to the original IgG-binding peptide-immobilized column [4] | Maximum binding capacity [5] | Dynamic binding capacity [6] | Variation (%) in dynamic binding capacity [6] | Dynamic binding capacity [7] | Variation (%) in dynamic binding capacity [7] | Maximum binding capacity [8] | Dynamic binding capacity [9] | Variation (%) in dynamic binding capacity [9] | fold reduction of affinity against the original peptide (human IgG1 (human) [10]) | Kd (human IgG1 (human) [11]) | Variation (%) in maximum binding capacity [12] | Variation (%) in maximum binding capacity [13] | Variation (%) in maximum binding capacity [14] | Maximum binding capacity [15] | further results |
| --- | --- | --- | --- | --- | --- | --- | --- | --- | --- | --- | --- | --- | --- | --- | --- | --- | --- | --- | --- | --- |
| CC(C)C[C@@H]1NC(=O)[C@H](CCC(=O)O)NC(=O)CNC(=O)[C@H](CCCNC(=N)N)NC(=O)[C@H](Cc2c[nH]cn2)NC(=O)[C@H](Cc2ccc(O)cc2)NC(=O)[C@H](C)NC(=O)[C@@H](NC(=O)[C@H](CC(=O)O)NC(=O)[C@@H]2CCCN2C(=O)CNC(=O)[C@H](CO)NC(=O)CNC(=O)CNC(=O)[C@H](CO)NC(=O)CN)CSCC(=O)CSC[C@@H](C(=O)N[C@H](C(=O)N[C@@H](Cc2ccccc2)C(=O)N[C@@H](Cc2c[nH]cn2)C(=O)O)[C@@H](C)O)NC(=O)[C@H](Cc2c[nH]c3ccccc23)NC(=O)[C@H](C(C)C)NC1=O [IgG-BP-LongGS 1,3-dichloroacetone] (H-GSGGSGPDCAYHRGELVWCTFH-OH; linker 9-19 via CH2COCH2; N-terminus and C-terminus assumed) |  |  |  |  |  |  |  |  |  |  |  |  |  |  |  |  |  |  |  | initial value of DBC of peptide column (human serum-derived IgG): 2.3 mg/mL-column; reduction of affinity as compared with the original peptide (human IgG1; Kd relative to original disulfide IgG-binding peptide): about 500 fold; kd (human IgG1; SPR, IgG immobilized on CM5 chip, HBS-EP pH 7.4): 0.005; ka (human IgG1; SPR, IgG immobilized on CM5 chip, HBS-EP pH 7.4, in M-1 s-1 (unit assumed)): 1.00E+03; Kd (IgG): 4900 nM |
| GSGGSGPDCAYHRGELVWCTFH (the thiol groups of the two Cys residues crosslinked with 1,1-dichloropinacolin in place of the disulfide bond; Fmoc removed) [1,1-dichloropinacolin-crosslinked cyclic peptide of IgG-BP-LongGS] | 100% | 10.9 mg | 14.5 mg/mL | 86.6% | 96% | 12.1 mg | 17.2 mg/mL | 103% | 16.7 mg/mL | 100% | 10.6 mg | 16.2 mg/mL | 97.2% | 14 fold | 112 nM | 89.8% | 99.8% | 87.1% | 12.1 mg |  |
| GSGGSGPDCAYHRGELVWCTFH (disulfide 9-19 (inferred); not fully specified) [IgG-BP-LongGS, original IgG-binding peptide having a disulfide bond (GSGGS-…)] | 100% | 6.09 mg |  |  |  | 12.4 mg |  |  | 17.2 mg/mL | 100% |  | 8.74 mg/mL | 50.7% |  | 8 nM | 49.2% |  |  |  | Kd (human IgG1 (human) [16]): 8.2 nM |
| GSGGSGPDCAYHRGELVWCTFH (not fully specified; the thiol groups of the two Cys residues crosslinked with 1,1-dichloroacetone (1,1-Dichloro-2-propanone) in place of the disulfide bond; Fmoc removed) [1,1-dichloroacetone-crosslinked cyclic peptide of IgG-BP-LongGS] | 100% | 9.93 mg | 12.2 mg/mL | 95.3% | 74% | 9.68 mg | 12.8 mg/mL | 100% | 12.8 mg/mL | 100% | 9.32 mg | 12.4 mg/mL | 96.9% | 5 fold | 45.6 nM | 103% | 100% | 96.3% | 9.7 mg | Variation (%) in maximum binding capacity [17]: 102%; Dynamic binding capacity [18]: 12.2 mg/mL; Variation (%) in dynamic binding capacity [18]: 95.3%; Dynamic binding capacity [19]: 12.4 mg/mL; Variation (%) in dynamic binding capacity [19]: 96.9%; Maximum binding capacity [20]: 8.35 mg; Maximum binding capacity [21]: 8.78 mg; Maximum binding capacity [22]: 10.1 mg; Maximum binding capacity [23]: 9.88 mg; Dynamic binding capacity [24]: 11.6 mg/mL; Variation (%) in dynamic binding capacity [24]: 90.6%; Variation (%) in maximum binding capacity [25]: 104%; Dynamic binding capacity [26]: 12.2 mg/mL; Variation (%) in dynamic binding capacity [26]: 95.3%; Variation (%) in maximum binding capacity [27]: 86.3%; Variation (%) in maximum binding capacity [28]: 90.7% |
